Measurements taken from patent US20230312753A1 (IMMUNORIZON, published 2023).

Tests used:
NKG2A-CD94-ECD-hFc = target: T1, NKG2A-CD94-ECD-hFc (human, UniProt P26715 94-233; Q13241 32-179, limits assumed); assay: ELISA on coated NKG2A-CD94-ECD-hFc (FIG. 43D)
T1 construct: extracellular domain; Lot 20200724002, 'provided by CP'; the two-chain layout here is only the reading of the name; also called human NKG2A (recombinant); NKG2A antigen; not shown: human Fc (hFc)
Description: (§1) Methods: ELISA binding of Tribody/ProTribody antibody constructs to antigens: Dilute target protein (hCD3epsilon-His (cat # 10977-H08S, supplier Sino Biological); h5T4-His (cat# 19845-H08H, supplier Sino Biological); NKG2A-CD94-ECD-hFc, Lot:20200724002, provided by CP; or NKG2D-ECD-hFc, Lot: 20200413002, provided by CP) into PBS with final concentration of 0.01 µg/mL for hCD3epsilon-His, 0.3 µg/mL for h5T4-His, 1 µg/mL for NKG2A-CD94-ECD-hFc and 0.7 µg/mL for hNKG2D-ECD-hFc respectively and coat 100 µL/well on ELISA plate (cat: 9018, supplier Corning) respectively. Incubate O/N, 4° C. The plates were blocked with 250 µL 1% BSA in PBST for 1 hr at 37° C.Wash 4 times with PBST. All the washes are done using Biotek (Elx 405). All the Tribody set antibodies were diluted to 400 nM and make 4-fold serially dilutions (12 points, including 0 point). Add 100 µL/well diluted antibody constructs solution to plate, incubate for 1 hr at 37° C.Wash 4 times with PBST. Add 100 µL/well anti-human kappa light chain-HRP (1:10000), incubate for 0.5 hr at 37° C. Wash 4 times with PBST. 100 µL/well of TMB substrate was added and incubated at room temperature for 5 min. 100 µL/well of 1N HCl to terminate reaction. Plates were read using ELISA plate reader at 450 nm wavelength (instrunet SpectraMax M5e). Data Analysis was performed using Graphpad prism 5 software by using nonlinear regression (curve fit): log (agonist) vs. response, agonist is antibody concentration (nM) and response is OD value.

[1] = target: T2, NKG2A/CD94 on CHO cells (CHOK1-NKG2A-CD94) (human, UniProt P26715 1-233; Q13241 1-179, limits assumed); assay: FACS on CHO cells over-expressing human NKG2A (FIG. 45F)
T2 construct: whole, on cells; also called CHO cells over-expressing NKG2A/CD94; CHO cell line over expressing ectopic NKG2A
T2 sequence (P26715 whole entry, chain 1 of 2): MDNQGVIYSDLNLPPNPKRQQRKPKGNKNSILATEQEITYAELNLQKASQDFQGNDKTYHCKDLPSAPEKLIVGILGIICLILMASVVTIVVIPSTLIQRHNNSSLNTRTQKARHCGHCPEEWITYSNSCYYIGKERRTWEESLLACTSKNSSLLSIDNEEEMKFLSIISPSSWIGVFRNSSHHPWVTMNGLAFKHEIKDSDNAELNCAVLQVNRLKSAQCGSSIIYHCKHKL
T2 sequence (Q13241 whole entry, chain 2 of 2): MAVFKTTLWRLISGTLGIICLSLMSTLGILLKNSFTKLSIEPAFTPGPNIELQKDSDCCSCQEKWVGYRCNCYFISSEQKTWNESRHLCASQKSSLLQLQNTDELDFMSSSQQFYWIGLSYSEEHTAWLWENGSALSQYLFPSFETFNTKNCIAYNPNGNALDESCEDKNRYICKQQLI
Description: (§2) Then wash the cells 3 times with 170 µL FACS buffer. Re-suspend the cells at 100 µL/well with secondary antibody (goat anti-human Ig Fab-FITC, Cat # 2085-02, Southern biotech) with 1:400 dilution and incubate the plate for 30 min at 4° C. in dark. Centrifuge the plate at 2000 rpm, 4° C. for 5 min and discard supernatant. Then wash the cells 3 times with FACS buffer and analyze the sample with FACS verse. The fluorescence intensity of the staining was measured using flow cytometer (BD, FACSVerse). The geometric mean fluorescence intensity (GMFI; median fluorescence intensity (MFI)) of set antibodies staining was calculated (BD FACSuite software). Dose-response curves were generated and EC50s for thetrispecific variants binding were calculated using GraphPad Prism software.
(§3) Results: The expressed trispecific constructs were analyzed for their binding to cells expressing endogenous CD3ε, 5T4 and NKG2A/NKG2D. […] (FIG. 45F).

[2] = target: T3, 5T4 on cells (NCI-H226 endogenous; CHO over-expressing 5T4) (UniProt Q13641 32-420, limits assumed); assay: FACS on CHO cells over-expressing ectopic 5T4 (FIG. 45D)
T3 construct: whole, on cells
T3 sequence (looked up): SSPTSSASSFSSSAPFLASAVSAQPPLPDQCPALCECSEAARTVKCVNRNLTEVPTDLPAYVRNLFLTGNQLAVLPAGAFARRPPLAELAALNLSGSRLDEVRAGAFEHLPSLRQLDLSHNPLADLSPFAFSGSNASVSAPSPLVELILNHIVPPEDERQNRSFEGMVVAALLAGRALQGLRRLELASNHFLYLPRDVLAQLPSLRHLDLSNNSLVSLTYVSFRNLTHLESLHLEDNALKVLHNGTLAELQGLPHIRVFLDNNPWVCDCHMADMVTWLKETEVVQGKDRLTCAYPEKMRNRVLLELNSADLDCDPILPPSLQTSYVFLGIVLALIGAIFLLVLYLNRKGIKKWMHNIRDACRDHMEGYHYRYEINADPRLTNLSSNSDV
Description: as §2, §3

[3] = target: T2, NKG2A/CD94 on CHO cells …; assay: competitive FACS receptor-ligand blocking assay on CHOK1-NKG2A-CD94 cells, labelled ligand HLA-E PE (FIG. 49)
[4] = target: T4, h5T4-His (recombinant human 5T4) (human, UniProt Q13641 32-355, limits assumed); assay: ELISA on coated h5T4-His (FIG. 43B)
T4 construct: Bought protein; also called recombinant 5T4
T4 sequence (looked up): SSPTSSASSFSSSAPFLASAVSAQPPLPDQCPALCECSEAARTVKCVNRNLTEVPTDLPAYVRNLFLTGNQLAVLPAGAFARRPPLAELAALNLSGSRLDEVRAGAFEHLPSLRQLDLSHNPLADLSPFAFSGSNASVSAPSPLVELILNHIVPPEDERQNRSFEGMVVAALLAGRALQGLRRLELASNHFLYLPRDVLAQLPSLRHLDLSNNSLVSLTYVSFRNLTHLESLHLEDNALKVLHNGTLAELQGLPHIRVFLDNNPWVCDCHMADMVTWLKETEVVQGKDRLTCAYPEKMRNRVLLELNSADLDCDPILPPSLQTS
Description: as §1

T1 sequence (P26715 94-233 limits assumed, chain 1 of 2): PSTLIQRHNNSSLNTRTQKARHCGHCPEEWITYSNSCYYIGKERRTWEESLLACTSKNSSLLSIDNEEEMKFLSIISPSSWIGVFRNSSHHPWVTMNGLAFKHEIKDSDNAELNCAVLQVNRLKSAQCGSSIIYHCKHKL
T1 sequence (Q13241 32-179 limits assumed, chain 2 of 2): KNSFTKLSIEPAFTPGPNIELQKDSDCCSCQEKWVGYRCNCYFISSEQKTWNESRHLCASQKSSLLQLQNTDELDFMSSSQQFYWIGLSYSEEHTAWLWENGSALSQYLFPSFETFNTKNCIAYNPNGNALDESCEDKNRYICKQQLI

B1: IM-1062 Tribody (other)
heavy: GGSGGSEVQLVESGGGLVQPGGSLRLSCAASGFTFNTYAMNWVRQAPGKGLEWVARIRSKYNNYATYYADSVKDRFTISRDDSKNTLYLQMNSLRAEDTAVYYCVRHGNFGNSYVSWFAYWGQGTMVTVSSASTKGPSVFPLAPSSKSTSGGTAALGCLVKDYFPEPVTVSWNSGALTSGVHTFPAVLQSSGLYSLSSVVTVPSSSLGTQTYICNVNHKPSNTKVDKRVEPKSCPPCGGGGSDIQMTQSPSSLSASVGDRVTITCRASENIYSYLAWYQQKPGKAPKLLIYNAKTLAEGVPSRFSGSGSGTDFTLTISSLQPEDFATYYCQHHYGTPRTFGGGTKVEIKGGGGSGGGGSGGGGSGGGGSQVQLVQSGAEVKKPGASVKVSCKASGYTFTSYWMNWVRQAPGQGLEWMGRIDPYDSETHYAQKLQGRVTMTTDTSTSTAYMELRSLRSDDTAVYYCARGGYDFDVGTLYWFFDVWGQGTTVTVSS
light: GGSGGSQAVVTQEPSLTVSPGGTVTLTCRSSTGAVTTSNYANWVQQKPGQAPRGLIGGTNKRAPGTPARFSGSLLGGKAALTLSGVQPEDEAEYYCALWYSNLWVFGGGTKLTVLGQPKAAPSVTLFPPSSEELQANKATLVCLISDFYPGAVTVAWKADSSPVKAGVETTTPSKQSNNKYAASSYLSLTPEQWKSHRSYSCQVTHEGSTVEKTVAPTECPPCSGGGSDIQMTQSPSSLSASVGDRVTITCRASQGISNYLAWFQQKPGKAPKSLIYRANRLQSGVPSRFSGSGSGTDFTLTISSLQPEDVATYYCLQYDDFPWTFGQGTKLEIKGGGGSGGGGSGGGGSGGGGSQVQLVQSGAEVKKPGASVKVSCKASGYTFTSFWMHWVRQAPGQGLEWMGRIDPNRGGTEYNEKAKSRVTMTADKSTSTAYMELSSLRSEDTAVYYCAGGNPYYPMDYWGQGTTVTVSS
notes: Tri-specific antibody (Tribody): anti-CD3 epsilon Fab with an anti-5T4 scFv and an anti-NKG2A scFv, no regulatory domain; also called the Tribody format
For B1, the EC50 (NKG2A-CD94-ECD-hFc) was 0.0057 µM, the EC50 [1] was 0.016 µM and the EC50 [2] was 0.0009 µM. It also gave an IC50 [3] of 0.029 µM and an EC50 [4] of 0.045 µM.
